Laboratory results: the nanobody polyreactivity screen of Harvey et al. (2022)

assay: yeast display, Sf9 membrane polyspecificity reagent, FACS + sequencing; frameworks hold sequencing errors
Method in brief: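 Nanobodies came from a synthetic yeast display library in Saccharomyces cerevisiae BJ5465, induced with galactose for 36–48 hours and stained for 1 hour at 4 °C with 10% biotinylated, detergent-solubilized Sf9 membrane reagent. Cells were enriched on streptavidin microbeads and then FACS-sorted, with low and high (top ~1%) gates set on anti-HA fluorescence for expression and streptavidin fluorescence for reagent binding. Each polyreactivity label reflects the gate a clone came from. Genes were amplified by colony PCR, sequenced by MiSeq 2 × 250 and filtered by CDR length.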

Sequence	polyreactivity (PSR sort gate)
QVQLVESGGGLVQAGGSLRLSCAASGRIFDYYAMGWYRQAPGKERELVARISSSGGSTYYADSVKGRFTISRDNAKNTVYLQKNSLKPEDTAVSYCDARSPRYWLRLREYWGQGTQVTVSS	high polyreactivity
QVQLVESGGGLVQAGGSLRLSCAASGSIFPPNAMAWYRQAPGKEREFVAAITESGGSTRYADSVKGRFTISRDNAKNTVYLQMNSLKPEDTAVYYCAARSYRYSTHGTYRYYYWGQGTQVTVSS	high polyreactivity
QVQLVESGGGLVHAGGSLRLSCAASGRIFTYNAMGWYRQAPGKERELVAAISTGGSTNYADSVKGRFTISRDNAKNTVYLQMNSLKPEDTAVYYCARRWWPTYDYWGQGTQVTVSS	high polyreactivity
QVQLVESGGGLVQAGGSLRLSCAASGSTFYPNAMGWYRQAPGKERELVAAISWSGGRTYYADSVKGRFTISRDNAKNTVYLQMNSLKPEDTAVYYCNRYHRTSWRAKYDYWGQGTQVTVSS	high polyreactivity
QVQLVESGGGLVQAGGSLRLSCAASGITFYFYAMGWYRQAPWKERELVAAITSTGTSTYYADSVKGRFTISRDNAKNTVYLQMNILKPEDTAVYYCNVTDYHTLWYDPEYYWGQGTQVTVSS	low polyreactivity
QVQLVESGGGLVQAGGSLRLSCAASGSTFYTNAMGWYRQAPGKERELVAAISGSGGSTYYADSVKGRFTISRDNAKNTVYLQMNSLKPEDTAVYYCAARSRYYDTRFDYWGQGTQVTVSS	low polyreactivity
QVQLVESGGGLVQAGGSLRLSCAASGFTFRGYVMGWYRQAPGKERELVAAITNIGTSTYYADSVKGRFTISRDNAKNTVYLQMNSLKPEDTAVYYCAARLRTKFYYWGQGTLVTVSS	low polyreactivity
QVQLVESGGGLVQAGGSLRLSCAASGRIFYPYAMGWYRQAPGKERELVAAIRRSGVDTYYADSVKGRFTISRDNAKNTVYLQMNSLIPEDTAVYSCAADPYWFFPHYDSWGQGTQVTVSS	low polyreactivity
QGQLVQSGVGLVQAGGSLSLSCAASGIIFTWYDMGWYRQAPGKERELVAAISNSGGSTYYADSVKGRFTISRDNAKNTVYLQMNSLKPEDTAVYYCNAGSYVCEEDYWGQGTQVTVSS	high polyreactivity
QVQLVESGGGLVQAGGSLRLSCAASGSTFYYYAMGWYRQAPGKERELVAAISTSDGSTYYADSVKGRFTISRDNAKNTVYLQMNSLKPEDTAVYYCAAESYERFPSYYYWGQGTQVTVSS	low polyreactivity
QVQLVESGGGLVQAGGSLRLSCAASGRTFRWYAMGWYRPAPAKERELVAAISSRGGSTYYADSVKGRFTISRDNAKNTVFLQMNSLKPEDTAVYYCAAVDNWLTLSDYDYWGQGTQVTVSS	low polyreactivity
QVQLVESGGLIVQAGGSLRLSCAASRSTSRYSMGWYRQAPGKERELDAAITRSCGTTYYADSVKGRFTISRDNAKNSVYLQMNSLKPEDTAVYYCATSDRQVKDDYWGQGTQVTVSS	low polyreactivity
QVQLVESGGGLVQAGGRLRLSFAASGFTFRYYAMGWYRQAPGKEREFVAAIRSSGTTTSYADSVKGRFTISRDNAKNTVYLHMKSLKPEDTAVYYCAKVSSSSYVEHRYGYWGQGTQVTVSS	high polyreactivity
QDQHVESGRGLVQAGGSLRLSCSASGTIFAYVMGWNIQAPRKERQLVAAISRSGGSTYYADSVKGRFTISRDNAKNTVYLQMNSLKPEDTAVFYCAAVGSTVFGTRYYYWGEGTQVTVSS	high polyreactivity
QVQLVESGVGLVQAGGSLRLSCAASGSILSGYAMGWYRQAPGKERELVAAINDGGGTNYADSVKGRFTISRDNAKNTVYLQMNSLKPEDTAVYYCNKVYYFQRRLTPVYLMDYWGQGTQVTVSS	low polyreactivity
QVQLVESGGGLVQAGGSLRLSCAASGRTFYSNVMGWYIQAPGQERELVASISRGGNTYYADSVKGRFTISRDNAKIPFYLQMNSLKPEDTAVYYCAARQYHSRDFDYWGQGTQVTVSS	low polyreactivity
QVQLVESGGGLVQAGGSLRLSCAASGSIFVGYDMGWYRQAPGKERELVAAISWRGVGTYYADSVKGRCTISRDNAKNTVYLQMNSLKPEDTAVYYCAARWTVPRDSAPSKGYDYWGQGTQVTVSS	low polyreactivity
QVQLVDSGGGLVQAGGSLRLSCAASGSTFRGYAMGWYRQSPGKERELVAAITGSAGSTYYADSVKGRFTISRDNAKNTVYLQMNSLKPEDTAVYYCAAATSYRRYYYIYNYWGQGTQVTVSS	high polyreactivity
QVQLVESGGGLVQAGGSLRLSCAASGIIFTYAIGWYRQAPGKERELVAAIDWRGGRTYYADSVKGRFTISRDNAKNTVYLHMNSLKREDTAVYYCGARLGGGTYYWGQGTQVTVSS	high polyreactivity
QVQLVESGGGLVQAGGSLRLSCDASGRIFGYYTMGWYRQAPGKERELVAAISNSGVSTYYADSVKGRFTISRDNAKNTVYLQMNSLKPEDTAVYYCNARLYSYYKFNYWGQGTQVTVSS	high polyreactivity
QVQLAESGGGLVQAGGSLRLSCAASGRTFNLYAMGWYRQAPGKERELVASISSGGSTYYADSVKGRFTISRDNAKNTVYLQMNSLIPEDTAVYYCAARLAYGPRPMPSYEYYYWGQGTQVTVSS	low polyreactivity
QVQLVESGGRLVQAGGSLRLSCAASGSIFDNYVMGWYRQAPGKERELVAAINSSGGSTYYADSVKGRFTISRDNAKNTVYLQMNSLKPEDTAVYYCIATDGITPYDLTDIEFDYWGQGTQVTVSS	low polyreactivity

Sequence	polyreactivity (PSR sort gate)
QVQLVESCGGLVQAGGSLRLICAASGITFYRNAMGGYRQAPWKERELVAAITRRGGSTYYADSVKGRFTISRDNAKNTVYCQMNIVKPEDTAVYYCAAQDATRGDGYWGQGTQVTVSS	high polyreactivity
QVQLVESGGGLVQAGGSLRLSCAASGSNFKTYAMGLYRQAPGKERELVAAISSGGSTYYADSVKGRFTISRDNAKITVYLQMNSLKPEDTAVYYCAADPWGAFVSFASYYYWGQATQVTVSS	low polyreactivity
QVQLVESGGGLVQAGRSLRLSCAASGSIFSTNAMGWYTQAQGKEREFVAAIDITNYEDSVKGRFTISRDNSKNTVDFQMNSVIPEDTAVYSCIADTYSVVREGDYWGQGTQVTVSS	low polyreactivity
QVQLQESGGGLVQAGGSLRLSSAASGPISRRSTMGWYRQAPGKERELVTAITRGTNTNYADSVKGRFTISRDNAMNTEYLQMNSLKPEDTAVYYCAAYGVLKPSRGDAVFHRYWGQGTQVTVSS	low polyreactivity
QVQLVESGGGLVQAGGSLRLSCAASGRTFIYNTMGWYRQAPGKERELFAAISSGGSTNYADSVKGRFTISRDNAKNTVYLQMNSLKPEDTAVYYCATQGLSAPFDGFVNSRFDHRGQGTQVTVSS	low polyreactivity
QVQLVESGGGLVQAGGSLRLTCAASGSISGLYTMGWYRQAPGKERELVAAIRWTTGTTYYADSVKGRFTISRDNAKNTVYLQMNSLKPEDTAVYYCNVVTWYYVFRPWEYDYWGQGTQVTVSS	low polyreactivity
QVQLVESGGGLVQAGGSLRLSCAASGITFQANAMGWYRQAPGKERELVAAISSSDGSTYYADSVKGRFTISRDNAKNTVYVQMNSLKPEDTAVYYCAADGVVYGWPEYEYWGQGTQVTVSS	low polyreactivity
QVQLVESGGGLVQAGGSLRLSCAASGSIFYSNTMGWYSQAPGKERELVAAISSSSGRTYYADSVKGRFTISRDNAKNTVYLQMNSLKPEDTAVYYCARRYGWGQGTQVTVSS	high polyreactivity
QFQLVESGGGLVQAGGSLRLSCAASGSIFDRNAMGWYRQAPGKERELVAAITSGGSTYYADSVKGRFTISRDNAKNTVYLQMNSLKPEDNAVYYCNADTDPPVPLYYWGQGTQVTVSS	low polyreactivity
QVQLVESGGGLVQAGGSLRLSCAASGSTFAKYAMGWYRQAPGKERELVATITDGGSTYYADSVKGRFTISRDNAKNTVYLQMNRMKPEDTAVYYCNAVILYWLYTSYVAGWPYDYWGQGTQVTVSS	high polyreactivity
QVQLVESGGGLVQAGGSLRLSCAASGFNYGIYAMGWYRQAPGKERELVAAISRGGGSTYYADSVKGRFTISRDNAKNTVYLQMNSLKPEDTAVYYCAARYQSPYDYWGQGTQVTVSS	high polyreactivity
QDQLVESVGGLVQAGVSLRLSSASSGRTFWAYAMGWYRQAHGKERELVAAISRNGGSTYYADSVKGRFTISRDHAKNTVYLQMNSLKPEDTAVYYCAAESRYYYELGYWGQGTQVTVSS	high polyreactivity
QVQLQESGGGLVQAGGSLRPSCAASGSISDRWWMGLYRQAPGKERESVAGINDGASTYYADSVKGRFTISCDNAKNTVYLQMNSLKPEDTAVYYCAVYVFITGCLNYWGQGTQVTVSS	high polyreactivity
QVQLVESGGGLVQAGGSLRLSCAASGSIFVQYAMGWYRQAPGKERELVAAISRGGGRTYYADSVKGRFTISRDNANNTVYLQMNSLKPEDTAVYYCAADSRPRDDYWGQGTQVTVSS	high polyreactivity
QVQLVESGGGLVQAGGSLRLSCAASGRIFGYYAMGWYRQAPGKERELVAAISYSGGRTYYADSVKGRFTISRDNAKNTVYLQMNSLKPEDTAVYYCNARSRSYKWYTRTGYGYDYWGQGTQVTVSS	high polyreactivity
QVQLVESGGGLVQAGGRHRLTCAASGRTVGRYAMGWYRQAPGKEREFVAAISNRVGRTYYADSVKGRFTISRDNAKNTVYLQMNSLKPEDTAVYYCAADTAHVNVNYWGQGTQVTVSS	high polyreactivity
QVQLVESGGGLVQAGGSLRLSCAASGSTFSRYAMGWYRQAPGKERELVAAITRSGGGTHYADSVKGRFTISRDNAKNTVYLQMNSLKPEDTAVYYCNVAGVLYPFVSYDYWGQGTQVTVSS	low polyreactivity
QVQLVESGGGLVQAGGSLRLSCAASGSIFEANVMGWYRQAPGKERELVASISSDGTSTYYADSVKGRFTISRDNAKNTVYLQMNSLKPEDTAVYYCNADAGAGWYPDSKYDYDYWGQGTQVTVSS	low polyreactivity
QVQLVESGGGLVQAGGSLRLSCAASGFTFRWYAMGSYRQAPGKERELVAAISSSGGSTYYADSVKGRFTISRDNAKNTVYLQMNSLKPEDTAVYYCAAASLRPYQRAYGYEYWGQGTQVTVSS	high polyreactivity
QVQLVESGGALVQAGGSLRLSSAASGSTFYLNAMGWYRQAPGKERELVAAITVSGGSTYYADSVKGRFTISRDNAKNTVYLQMNSLKPEDTAVYYCARELLSPTYQRWYYYWGQGTQVTVSS	low polyreactivity
QVQLVESGGGLVQAGGSLRLSCAASGFIFSYNAMGWYRQAPGKERELVAAISSSGGTTYYADSVKGRFTISRDKAKNTVYLQMNSLKPEDTAVYYCNKTTHSRTFRYDYWAQGTQVTVSS	low polyreactivity
